Molecular target: CCR3 (UniProt P51677)
Sequence (P51677 whole entry): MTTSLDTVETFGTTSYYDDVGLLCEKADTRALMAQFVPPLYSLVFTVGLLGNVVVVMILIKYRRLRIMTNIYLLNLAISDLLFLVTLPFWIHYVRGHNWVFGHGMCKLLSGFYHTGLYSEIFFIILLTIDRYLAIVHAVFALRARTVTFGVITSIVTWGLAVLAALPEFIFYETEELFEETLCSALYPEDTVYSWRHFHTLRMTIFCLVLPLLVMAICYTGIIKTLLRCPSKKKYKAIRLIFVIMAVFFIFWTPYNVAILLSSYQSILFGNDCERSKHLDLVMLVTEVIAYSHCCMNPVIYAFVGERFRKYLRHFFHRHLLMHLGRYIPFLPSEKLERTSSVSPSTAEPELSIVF

Sequence of CCL5 (P13501 24-91): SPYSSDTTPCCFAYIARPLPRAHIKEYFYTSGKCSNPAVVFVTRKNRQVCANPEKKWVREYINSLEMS

Substance: CCL5 (from UniProt P13501 24-91) (ligand)
- reduction of CCR3 surface expression on human eosinophils (flow cytometry), 12.5 nM CCL5, 15 and 60 min: 56.1%

Source: paper PMC3711072
